Experimental data published in patent US20180185504A1 (Regeneron, published 2018).
Read-outs that look alike come from different tables or passages of the source.

T1: human prolactin receptor (PRLR) (human, UniProt P16471 25-622)
T1 sequence: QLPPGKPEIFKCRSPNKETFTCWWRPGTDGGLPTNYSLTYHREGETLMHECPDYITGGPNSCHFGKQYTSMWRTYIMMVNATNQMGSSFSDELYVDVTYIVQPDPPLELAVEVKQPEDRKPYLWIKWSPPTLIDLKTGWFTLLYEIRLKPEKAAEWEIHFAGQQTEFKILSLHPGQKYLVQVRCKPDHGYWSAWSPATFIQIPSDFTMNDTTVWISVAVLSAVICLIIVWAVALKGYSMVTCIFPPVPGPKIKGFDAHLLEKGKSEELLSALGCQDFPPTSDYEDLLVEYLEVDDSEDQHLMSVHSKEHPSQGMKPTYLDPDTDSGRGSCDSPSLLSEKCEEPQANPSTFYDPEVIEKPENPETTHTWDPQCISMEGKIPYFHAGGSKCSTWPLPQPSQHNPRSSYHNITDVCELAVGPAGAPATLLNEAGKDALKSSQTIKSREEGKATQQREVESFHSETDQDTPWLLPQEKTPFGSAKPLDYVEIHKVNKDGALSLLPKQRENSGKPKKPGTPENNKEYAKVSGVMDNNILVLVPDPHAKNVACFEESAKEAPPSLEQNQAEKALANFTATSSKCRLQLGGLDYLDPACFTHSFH


Legend:
Assay in all cases: cell-based or functional assay
[1] = biological target: T1, human prolactin receptor (PRLR)
[2] = biological target: T1, human prolactin receptor (PRLR); remark: listed apart in the source
[3] = biological target: T1, human prolactin receptor (PRLR); remark: listed apart in the source
[4] = biological target: T1, human prolactin receptor (PRLR); remark: listed apart in the source
[5] = biological target: T1, human prolactin receptor (PRLR); remark: listed apart in the source

| Binder | % Kill, MCF7/ATCC cells [3] | % Kill, MCF7/PRLR cells [3] | IC50, cell viability, MCF7/ATCC cells [3] | IC50, cell viability, MCF7/PRLR cells [3] | % Kill, T47D cells [4] | IC50, cell viability, T47D cells [4] | further results |
| --- | --- | --- | --- | --- | --- | --- | --- |
| H1H6959N2-DM1 (antibody, human IgG1, V domains shown, DM1 conjugated through SMCC linker; attachment residues not stated) VH: EVQLVESGGGLVQPGRSLRLSCAASGFTFDDYAMHWVRQAPGKGLEWVSGISWHSGIIGYADSVKGRFTISRDNAKNSLYLQMNSLRTEDAALYYCAKIGSYFYFDSWGQGTLVTVSS VL: EIVLTQSPGTLSLSPGERATLSCRASQSVSSNYLAWYQQKPGQAPRLLIYGASSRATGIPDRFSGSGSGTDFTLTISRLEPEDFAVYYCQQFGSSGYTFGQGTNLEIK | – | – | – | – | – | – | % Kill, 293/PRLR cells [1]: 95%; % Kill, PC3/PRLR cells [1]: 82%; IC50, cell viability, 293/PRLR cells [1]: 4.82 nM; IC50, cell viability, PC3/PRLR cells [1]: 11.6 nM; % Kill, MCF7/PRLR cells [2]: 80%; % Kill, MCF7 cells [2]: 82%; % Kill, T47D cells [2]: 71%; IC50, cell viability, MCF7/PRLR cells [2]: 0.47 nM; IC50, cell viability, MCF7 cells [2]: 100 nM; IC50, cell viability, T47D cells [2]: 48.9 nM |
| H1H6975N-DM1 (antibody, human IgG1, V domains shown, DM1 conjugated through SMCC linker; attachment residues not stated) VH: EVHLVESGGGLVQPGGSLRLSCAASGFTFSSYEMNWVRQTPGKGLEWISHISSRSVIIYYADSVKGRFTISRDNAKNSLFLQMNSLRAEDTAVYFCAGITIFGIPEYWGQGTLVTVSS VL: EIVLTQSPATLSLSPGERATLSCRASQSVSSYFAWYQQKPGQAPRLLIYDASSRATGIPTRFSGSGSGTDFTLTISSLEPEDFAVYYCQQRSSWPITFGQGTRLEIK | 70% | 80% | 200 nM | 0.2 nM | 100% | 2 nM | % Kill, PC3/PRLR cells [1]: 68%; IC50, cell viability, PC3/PRLR cells [1]: 2.7 nM; % Kill, MCF7/PRLR cells [2]: 87%; % Kill, MCF7 cells [2]: 73%; % Kill, T47D cells [2]: 80%; IC50, cell viability, MCF7/PRLR cells [2]: 0.49 nM; IC50, cell viability, MCF7 cells [2]: 150 nM; IC50, cell viability, T47D cells [2]: 6.9 nM |
| H1H6975P-mc-VC-PAB-MMD (antibody, human IgG1, V domains shown, MMD conjugated through mc-VC-PAB linker; attachment residues not stated) VH: EVHLVESGGGLVQPGGSLRLSCAASGFTFSSYEMNWVRQTPGKGLEWISHISSRSVIIYYADSVKGRFTISRDNAKNSLFLQMNSLRAEDTAVYFCAGITIFGIPEYWGQGTLVTVSS VL: EIVLTQSPATLSLSPGERATLSCRASQSVSSYFAWYQQKPGQAPRLLIYDASSRATGIPTRFSGSGSGTDFTLTISSLEPEDFAVYYCQQRSSWPITFGQGTRLEIK | 50% | 90% | 150 nM | 0.2 nM | 90% | 3 nM | – |
| H1H6953N-mc-VC-PAB-MMAE (antibody, human IgG1, V domains shown, MMAE conjugated through cleavable mc-vc-PAB linker; attachment residues not stated) VH: EVQLLESGGGLVQPGGTLRLSCAASGFTFSAYAMSWVRQAPGKGLEWVSSINVRAGDTYYADSVKGRFTISRDNSKNTLFLLMNSLRAEDTAAYYCAKARYSSNWGFDFWGQGTLVTVSS VL: DIVMTQSPDSLTVSLGARTTINCQSSQTILHSSNNHNYLAWYQQKPGLPPKLLIYWSSTRESGVPDRFSGSGSGTDFTLTISSLQAEDVAIYYCQQYSNTPYTFGQGTKLEIN | 40% | 85% | 150 nM | 0.1 nM | 80% | 1 nM | % Kill, MCF7/ATCC cells [5]: 42%; % Kill, MCF7/PRLR cells [5]: 85%; % Kill, PC3/hPRLR cells [5]: 80%; IC50, cell viability, MCF7/ATCC cells [5]: 150 nM; IC50, cell viability, MCF7/PRLR cells [5]: 0.1 nM; IC50, cell viability, PC3/hPRLR cells [5]: 0.2 nM |
| H1H6953N-mc-VC-PAB-MeNHC3-May (antibody, human IgG1, V domains shown, MeNHC3-May conjugated through mc-VC-PAB linker; attachment residues not stated) VH: EVQLLESGGGLVQPGGTLRLSCAASGFTFSAYAMSWVRQAPGKGLEWVSSINVRAGDTYYADSVKGRFTISRDNSKNTLFLLMNSLRAEDTAAYYCAKARYSSNWGFDFWGQGTLVTVSS VL: DIVMTQSPDSLTVSLGARTTINCQSSQTILHSSNNHNYLAWYQQKPGLPPKLLIYWSSTRESGVPDRFSGSGSGTDFTLTISSLQAEDVAIYYCQQYSNTPYTFGQGTKLEIN | 60% | 80% | 150 nM | 0.2 nM | 90% | 1 nM | – |
| H1H6953N-mc-VC-PAB-MMD (antibody, human IgG1, V domains shown, MMD conjugated through mc-VC-PAB linker; attachment residues not stated) VH: EVQLLESGGGLVQPGGTLRLSCAASGFTFSAYAMSWVRQAPGKGLEWVSSINVRAGDTYYADSVKGRFTISRDNSKNTLFLLMNSLRAEDTAAYYCAKARYSSNWGFDFWGQGTLVTVSS VL: DIVMTQSPDSLTVSLGARTTINCQSSQTILHSSNNHNYLAWYQQKPGLPPKLLIYWSSTRESGVPDRFSGSGSGTDFTLTISSLQAEDVAIYYCQQYSNTPYTFGQGTKLEIN | 50% | 90% | 300 nM | 0.2 nM | 90% | 1 nM | – |
| H1H6803P-DM1 (antibody, human IgG1, V domains shown, DM1 conjugated through SMCC linker; attachment residues not stated) VH: EVQLVESGGGVVRPGGSLRLSCAASGFKFDDYGMTWVRHVPGKGLEWVSGINWNGGRTGYTDSVKGRFTISRDNAKNSLYLQMNSLRAEDTALYHCAGARRDAFDIWGQGTMVTVSS VL: DIQMTQSPSSLSASIGDRVTITCRASQNIIKYLNWYQQNAGKAPKLLIYTASSLQSGVPSRFSGSGSGTDFTLTISSLQPEDFATYYCQQSSSSPYTFGQGTKLEIK | – | – | – | – | – | – | % Kill, PC3/PRLR cells [1]: 70%; IC50, cell viability, PC3/PRLR cells [1]: 2.32 nM; % Kill, MCF7/PRLR cells [2]: 84%; % Kill, MCF7 cells [2]: 60%; % Kill, T47D cells [2]: 77%; IC50, cell viability, MCF7/PRLR cells [2]: 0.44 nM; IC50, cell viability, MCF7 cells [2]: 150 nM; IC50, cell viability, T47D cells [2]: 8.61 nM |
| H1H6782P-mc-VC-PAB-MMD (antibody, human IgG1, V domains shown, MMD conjugated through mc-VC-PAB linker; attachment residues not stated) VH: EVQLVESGGGLVQPGRSLRLSCAASGFTFDDYAMHWVRQAPGKGLEWVSGIIWNSGHIGYGDSVKGRFTISRDNAKKSLYLQMNSLRAEDTALYYCARDSGRYQSYFDYWGQGTLVTVSS VL: DIQMTQSPSTLSASVGDRVTITCRASHIISSWLAWYQQKPGKAPKVLIFKASSLESGVPSRFSGSGSGTEFTLTISSLQPDDFATYYCQQYNTYSRTFGQGTKVEIK | 50% | 90% | 200 nM | 0.3 nM | 90% | 2 nM | – |
| H1H6782P-mc-VC-PAB-MeNHC3-May (antibody, human IgG1, V domains shown, MeNHC3-May conjugated through mc-VC-PAB linker; attachment residues not stated) VH: EVQLVESGGGLVQPGRSLRLSCAASGFTFDDYAMHWVRQAPGKGLEWVSGIIWNSGHIGYGDSVKGRFTISRDNAKKSLYLQMNSLRAEDTALYYCARDSGRYQSYFDYWGQGTLVTVSS VL: DIQMTQSPSTLSASVGDRVTITCRASHIISSWLAWYQQKPGKAPKVLIFKASSLESGVPSRFSGSGSGTEFTLTISSLQPDDFATYYCQQYNTYSRTFGQGTKVEIK | 50% | 80% | 250 nM | 0.2 nM | 90% | 2 nM | – |
| H1H6765P-mc-VC-PAB-MMAE (antibody, human IgG1, V domains shown, MMAE conjugated through cleavable mc-vc-PAB linker; attachment residues not stated) VH: EVQLVESGGGVVRPGGSLRLSCVGSGFSFDDHGMNWVRQGPGKGLEWVSGFNWNGGSTNYAESVKGRFTISRDNARNSLFLQMNSLRAEDTALYYCVRGRSGWFNDAFDVWGPGTMVTVSS VL: EIVLTQSPGTLSLSPGERATLSCRASQTINSNYLAWYRQKPGQTPRLLIYGTSSRATGIPDRFSGSGSGTDFSLTISRLEPEDFAVFYCQQYAGLPTFGPGTKVDIK | 40% | 90% | 150 nM | 0.2 nM | 90% | 1 nM | % Kill, MCF7/ATCC cells [5]: 38%; % Kill, MCF7/PRLR cells [5]: 86%; % Kill, PC3/hPRLR cells [5]: 85%; IC50, cell viability, MCF7/ATCC cells [5]: 150 nM; IC50, cell viability, MCF7/PRLR cells [5]: 0.2 nM; IC50, cell viability, PC3/hPRLR cells [5]: 0.4 nM |
| H1H6958N2-mc-VC-PAB-MMAE (antibody, human IgG1, V domains shown, MMAE conjugated through cleavable mc-vc-PAB linker; attachment residues not stated) VH: QVQLVESGGGVVQPGRSLRLSCGASGFTFRNYGMQWVRQGPGKGLEWVTLISFDGNDKYYADSVKGRFTISRDNSKNTLFLQMNSLRTEDTAVYYCARGGDFDYWGQGTLVTVSS VL: DIQMTQSPSSLSASVGDRVTITCRASQDIRKDLGWYQQKPGKAPKRLIYAASSLHSGVPSRFSGSGSGTEFTLTISSLQPEDFATYYCLQHNSYPMYTFGQGTKLEIK | 50% | 90% | 150 nM | 0.2 nM | 90% | 1 nM | % Kill, MCF7/ATCC cells [5]: 53%; % Kill, MCF7/PRLR cells [5]: 88%; % Kill, PC3/hPRLR cells [5]: 82%; IC50, cell viability, MCF7/ATCC cells [5]: 150 nM; IC50, cell viability, MCF7/PRLR cells [5]: 0.2 nM; IC50, cell viability, PC3/hPRLR cells [5]: 0.5 nM |
| H1H6958N2-SPDB-DM4 (antibody, human IgG1, V domains shown, DM4 conjugated through SPDB linker; attachment residues not stated) VH: QVQLVESGGGVVQPGRSLRLSCGASGFTFRNYGMQWVRQGPGKGLEWVTLISFDGNDKYYADSVKGRFTISRDNSKNTLFLQMNSLRTEDTAVYYCARGGDFDYWGQGTLVTVSS VL: DIQMTQSPSSLSASVGDRVTITCRASQDIRKDLGWYQQKPGKAPKRLIYAASSLHSGVPSRFSGSGSGTEFTLTISSLQPEDFATYYCLQHNSYPMYTFGQGTKLEIK | 80% | 90% | 25 nM | 0.8 nM | 100% | 1 nM | – |
